Assay results reported in patent publication US20030143697A1.

T1: gp130 on PC12D cells (UniProt P40190)
T1 sequence (looked up): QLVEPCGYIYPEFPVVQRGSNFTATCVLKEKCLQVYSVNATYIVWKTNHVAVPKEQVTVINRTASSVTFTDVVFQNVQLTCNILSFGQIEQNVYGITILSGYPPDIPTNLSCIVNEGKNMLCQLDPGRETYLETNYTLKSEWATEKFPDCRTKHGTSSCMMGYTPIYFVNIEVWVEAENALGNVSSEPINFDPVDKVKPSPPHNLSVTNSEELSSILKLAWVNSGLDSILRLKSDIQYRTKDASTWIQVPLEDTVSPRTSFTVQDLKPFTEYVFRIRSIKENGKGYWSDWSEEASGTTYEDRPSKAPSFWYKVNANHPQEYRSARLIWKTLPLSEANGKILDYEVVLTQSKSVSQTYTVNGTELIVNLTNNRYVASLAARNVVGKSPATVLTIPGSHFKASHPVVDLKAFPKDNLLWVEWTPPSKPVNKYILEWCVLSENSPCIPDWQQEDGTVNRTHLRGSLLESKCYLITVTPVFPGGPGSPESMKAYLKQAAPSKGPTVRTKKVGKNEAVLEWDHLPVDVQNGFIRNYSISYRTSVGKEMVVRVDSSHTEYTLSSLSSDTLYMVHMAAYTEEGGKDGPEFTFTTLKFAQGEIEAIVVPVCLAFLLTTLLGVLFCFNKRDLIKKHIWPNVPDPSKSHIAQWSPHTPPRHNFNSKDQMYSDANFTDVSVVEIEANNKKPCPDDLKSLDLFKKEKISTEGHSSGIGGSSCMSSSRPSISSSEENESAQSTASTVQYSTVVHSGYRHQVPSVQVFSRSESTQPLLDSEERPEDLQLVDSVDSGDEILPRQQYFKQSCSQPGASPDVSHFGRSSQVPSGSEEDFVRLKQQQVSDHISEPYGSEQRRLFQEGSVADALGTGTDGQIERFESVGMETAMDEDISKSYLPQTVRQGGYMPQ

B1: anti-IL-6 monoclonal neutralizing antibody B-E8 (antibody, from another filing, V domains shown)
VH: QVTLKESGPGILKPSQTLSLTCSFSGFSLSTSGMGVGWIRQPSGKGLEWLAHIWWDDDKYYNPSLKSQLTISKDTSRNQVFLKITSVDTADTATYYCARSYDDYLYYALDYWGQGTSVTVSS
VL: DIVMTQSPATLSVTPGDRVSLSCRASQSISDYLHWYQQKSHESPRLLIKSVSQSISGIPSRFSGSGSGSDFTLSINSVEPEDVGVYYCQNGHSFPLTFGAGTKLELK
B2: Rat CNTF (ligand, UniProt P20294 1-200, looked up)
chain: MAFAEQTPLTLHRRDLCSRSIWLARKIRSDLTALMESYVKHQGLNKNINLDSVDGVPVASTDRWSEMTEAERLQENLQAYRTFQGMLTKLLEDQRVHFTPTEGDFHQAIHTLMLQVSAFAYQLEELMVLLEQKIPENEADGMPATVGDGGLFEKKLWGLKVLQELSQWTVRSIHDLRVISSHQMGISALESHYGAKDKQM

Assays:
[1] = molecular target: recombinant human IL-1 (human); experiment: cell-based or functional assay
human IL-4 (human) = human IL-4 (human) (UniProt P05112); experiment: cell-based or functional assay
human IL-13 (human) = human IL-13 (human) (UniProt P35225); experiment: cell-based or functional assay
human IL-6 (human) [2] = molecular target: human IL-6 (human) (UniProt P05231); experiment: cell-based or functional assay
human IL-6 (human) [3] = molecular target: human IL-6 (human) (UniProt P05231); experiment: dissociation of 20 pM 125I-IL-6 from 500 pM mAb B-E8 after a 1000-fold excess of cold IL-6; Protein G-Sepharose precipitation
human IL-6 (human) [4] = molecular target: human IL-6 (human) (UniProt P05231); experiment: cell-based or functional assay; remark: listed apart in the source
gp130 on PC12D cells = molecular target: T1, gp130 on PC12D cells; experiment: cell-based or functional assay

Sequence of human IL-13 (human) (P35225 35-146 limits assumed): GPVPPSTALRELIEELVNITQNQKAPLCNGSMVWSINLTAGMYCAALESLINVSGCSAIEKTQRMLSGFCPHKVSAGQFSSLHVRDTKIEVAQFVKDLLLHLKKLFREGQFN
Sequence of human IL-6 (human) (P05231 30-212 limits assumed): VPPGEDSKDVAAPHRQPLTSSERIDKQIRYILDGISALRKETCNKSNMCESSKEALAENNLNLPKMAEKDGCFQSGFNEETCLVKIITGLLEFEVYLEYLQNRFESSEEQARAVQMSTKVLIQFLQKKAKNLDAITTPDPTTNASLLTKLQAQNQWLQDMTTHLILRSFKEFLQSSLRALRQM
Sequence of human IL-4 (human) (P05112 25-153 limits assumed): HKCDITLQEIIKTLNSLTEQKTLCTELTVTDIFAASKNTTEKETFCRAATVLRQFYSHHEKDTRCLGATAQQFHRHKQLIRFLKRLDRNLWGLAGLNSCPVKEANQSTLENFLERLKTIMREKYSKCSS

TF1 bioassay (MTS); IL-4 concentration at which growth is inhibited by 50% with 10 nM Trap (human IL-4 (human))	TF1 bioassay (MTS); highest IL-4 concentration whose growth effect is blocked by 10 nM Trap (human IL-4 (human))	TF1 bioassay (MTS); IL-13 concentration at which growth is inhibited by 50% with 10 nM Trap (human IL-13 (human))	TF1 bioassay (MTS); highest IL-13 concentration whose growth effect is blocked by 10 nM Trap (human IL-13 (human))	further results	Molecule
				IL-1-dependent production of IL-6 by MRC5 cells; highest IL-1 concentration blocked [1]: 10 to 20 pM	IL-1-RI.Fc (from UniProt P14778 18-336) (Fc fusion)
3 to 4 nM	1 nM	4 to 5 nM	2 nM		IL-4Rα.IL-13Rα1.Fc (Fc fusion)
3 to 4 nM	1 nM	4 to 5 nM	2 nM		IL-13Rα1.IL-4Rα.Fc (Fc fusion)
				IL-6-dependent proliferation of XG-1 cells (MTT assay) (fold molar excess over IL-6) (human IL-6 (human) [2]): 1000	gp130-Fc•CNTFRα-Fc ligand Trap (Fc fusion)
				percent of the initial counts of 125I-IL-6 still bound after three days (human IL-6 (human) [3]): < 5%; IL-6-dependent proliferation of XG-1 cells (MTT assay, 50 pg/ml IL-6) (fold molar excess) (human IL-6 (human) [4]): 10	B1
				tyrosine phosphorylation of gp130 induced by IL-6 and sIL-6Rα in PC12D cells (gp130 on PC12D cells): 8 nM; tyrosine phosphorylation of gp130 induced by IL-6 in PC12D cells (anti-gp130 immunoprecipitation, anti-phosphotyrosine immunoblot) (gp130 on PC12D cells): 2 nM	B2
